Results on 9 molecules are retold here after US20240301052A1 (LANOVA MEDICINES DEVELOPMENT, published 2024).

B1: 63A11D5B4.p1.z4 hIgG1 (antibody, V domains shown)
VH: QVQLVQSGAEVKKPGASVKVSCKASGYTFITYNMHWVRQAPGQGLEWMGAIYPGSGDTSYNQKFKGRVTMTRDTSTSTVYMELSSLRSEDTAVYYCASSTIITTGAVDYWGQGTLVTVSS
VL: DIVMTQSPSSLSTSVGDRVTITCKASQDVGTAVAWYQQKPGQSPKLLIYWTSTRHTGVPDRFTGSGSGTDFTLIIRSLQPEDVATYFCQQYSRIPLTFGSGTKVEIK
notes: humanized hIgG1
B2: 63A11D5B4.p1.z16 hIgG1 (antibody, V domains shown)
VH: QVQLQQSGAEVVKPGASVKMSCKTSGYTFITYNMHWVKQAPGQGREWIGAIYPGSGDTSYNQKFKGRATLTADKSTSTAYMELSSLRSEDTAVYYCSISTIITTGAVDYWGQGTSVTVSS
VL: DIVMTQSPSSLSTSVGDRVTITCKASQDVGTAVAWYQQKPGQSPKLLIYWTSTRHTGVPDRFTGSGSGTDFTLIIRSLQPEDVATYFCQQYSRIPLTFGSGTKVEIK
notes: humanized hIgG1
B3: 63A11D5B4.p1.z13 hIgG1 (antibody, V domains shown)
VH: QVQLQQSGAEVVKPGASVKMSCKTSGYTFITYNMHWVKQAPGQGREWIGAIYPGSGDTSYNQKFKGRATLTADKSTSTAYMELSSLRSEDTAVYYCSISTIITTGAVDYWGQGTSVTVSS
VL: DIQMTQSPSSLSASVGDRVTITCKASQDVGTAVAWYQQKPGKVPKLLIYWTSTRHTGVPSRFSGSGSGTDFTLTISSLQPEDVATYYCQQYSRIPLTFGGGTKVEIK
notes: humanized hIgG1
B4: 63A11D5B4.p1.z7 hIgG1 (antibody, V domains shown)
VH: QVQLVQSGAEVKKPGASVKVSCKTSGYTFITYNMHWVRQAPGQGLEWIGAIYPGSGDTSYNQKFKGRVTMTADTSTSTVYMELSSLRSEDTAVYYCSISTIITTGAVDYWGQGTLVTVSS
VL: DIQMTQSPSSLSTSVGDRVTITCKASQDVGTAVAWYQQKPGQSPKLLIYWTSTRHTGVPDRFSGSGSGTDFTLIIRSLQPEDVATYFCQQYSRIPLTFGGGTKVEIK
notes: humanized hIgG1
B5: 63A11D5B4.p1.z11 hIgG1 (antibody, V domains shown)
VH: QVQLVQSGAEVVKPGASVKMSCKTSGYTFITYNMHWVRQAPGQGLEWIGAIYPGSGDTSYNQKFKGRVTLTADKSTSTAYMELSSLRSEDTAVYYCSISTIITTGAVDYWGQGTLVTVSS
VL: DIQMTQSPSSLSTSVGDRVTITCKASQDVGTAVAWYQQKPGQSPKLLIYWTSTRHTGVPDRFSGSGSGTDFTLIIRSLQPEDVATYFCQQYSRIPLTFGGGTKVEIK
notes: humanized hIgG1
B6: 63A11D5B4.p1.z10 hIgG1 (antibody, V domains shown)
VH: QVQLVQSGAEVVKPGASVKMSCKTSGYTFITYNMHWVRQAPGQGLEWIGAIYPGSGDTSYNQKFKGRVTLTADKSTSTAYMELSSLRSEDTAVYYCSISTIITTGAVDYWGQGTLVTVSS
VL: DIQMTQSPSSLSTSVGDRVTITCKASQDVGTAVAWYQQKPGKSPKLLIYWTSTRHTGVPSRFSGSGSGTDFTLIISSLQPEDVATYYCQQYSRIPLTFGGGTKVEIK
notes: humanized hIgG1
B7: 63A11D5B4.p1.z14 hIgG1 (antibody, V domains shown)
VH: QVQLQQSGAEVVKPGASVKMSCKTSGYTFITYNMHWVKQAPGQGREWIGAIYPGSGDTSYNQKFKGRATLTADKSTSTAYMELSSLRSEDTAVYYCSISTIITTGAVDYWGQGTSVTVSS
VL: DIQMTQSPSSLSTSVGDRVTITCKASQDVGTAVAWYQQKPGKSPKLLIYWTSTRHTGVPSRFSGSGSGTDFTLIISSLQPEDVATYYCQQYSRIPLTFGGGTKVEIK
notes: humanized hIgG1
B8: 63A11D5B4.p1.z12 hIgG1 (antibody, V domains shown)
VH: QVQLVQSGAEVVKPGASVKMSCKTSGYTFITYNMHWVRQAPGQGLEWIGAIYPGSGDTSYNQKFKGRVTLTADKSTSTAYMELSSLRSEDTAVYYCSISTIITTGAVDYWGQGTLVTVSS
VL: DIVMTQSPSSLSTSVGDRVTITCKASQDVGTAVAWYQQKPGQSPKLLIYWTSTRHTGVPDRFTGSGSGTDFTLIIRSLQPEDVATYFCQQYSRIPLTFGSGTKVEIK
notes: humanized hIgG1
B9: 63A11D5B4.p1.z8 hIgG1 (antibody, V domains shown)
VH: QVQLVQSGAEVKKPGASVKVSCKTSGYTFITYNMHWVRQAPGQGLEWIGAIYPGSGDTSYNQKFKGRVTMTADTSTSTVYMELSSLRSEDTAVYYCSISTIITTGAVDYWGQGTLVTVSS
VL: DIVMTQSPSSLSTSVGDRVTITCKASQDVGTAVAWYQQKPGQSPKLLIYWTSTRHTGVPDRFTGSGSGTDFTLIIRSLQPEDVATYFCQQYSRIPLTFGSGTKVEIK
notes: humanized hIgG1

The target in this experiment is T1, human SLC34A2 (human, UniProt O95436 1-690).
T1 construct: whole, on cells; also called human solute carrier 34 A2; NaPi2b
T1 sequence (looked up): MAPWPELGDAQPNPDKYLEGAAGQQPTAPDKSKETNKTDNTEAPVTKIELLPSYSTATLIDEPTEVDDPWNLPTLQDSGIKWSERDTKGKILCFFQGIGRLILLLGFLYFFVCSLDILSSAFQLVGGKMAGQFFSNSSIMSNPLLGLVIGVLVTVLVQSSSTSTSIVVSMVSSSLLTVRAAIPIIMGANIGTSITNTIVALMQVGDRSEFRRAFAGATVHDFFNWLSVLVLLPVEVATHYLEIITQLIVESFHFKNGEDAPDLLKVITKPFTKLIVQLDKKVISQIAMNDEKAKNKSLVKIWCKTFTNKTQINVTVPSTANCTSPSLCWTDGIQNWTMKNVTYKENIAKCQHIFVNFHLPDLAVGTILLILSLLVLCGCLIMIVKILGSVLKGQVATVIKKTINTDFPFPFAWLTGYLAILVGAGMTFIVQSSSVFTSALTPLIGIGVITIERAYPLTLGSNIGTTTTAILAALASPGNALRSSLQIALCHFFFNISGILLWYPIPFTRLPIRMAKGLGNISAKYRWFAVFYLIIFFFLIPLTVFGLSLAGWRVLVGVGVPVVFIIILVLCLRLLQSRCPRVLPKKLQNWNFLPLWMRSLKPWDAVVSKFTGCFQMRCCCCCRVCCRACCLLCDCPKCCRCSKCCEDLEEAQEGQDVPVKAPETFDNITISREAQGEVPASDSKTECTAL
Nature of the experiment: FACS, OVCAR3 cells.
One may read the EC50 as the concentration that produces a half-maximal response. Lower therefore signals higher potency in that assay. For the molecule B1, the response was half-maximal at 18.1 nM (EC50) and the “Top (MFI)” value was determined as 29000 MFI.
On the same counts, the results for B2 are 11.4 nM and 29500 MFI.
As for B3, the EC50 was 16.4 nM and the “Top (MFI)” value was 32600 MFI.
On the same counts, the results for B4 are 61.1 nM and 41000 MFI.
On the same counts, the results for B5 are 10.3 nM and 27700 MFI.
In the same order, the values of B6 are 12.3 nM and 29800 MFI.
As for B7, the response was half-maximal at 16.1 nM (EC50) and the “Top (MFI)” value amounted to 32600 MFI.
On the same counts, the results for B8 are 11.7 nM and 31700 MFI.
For the molecule B9, the 50% effective concentration (EC50) was determined as 14.2 nM and the “Top (MFI)” value amounted to 27900 MFI.
